The values that follow come from article PMC8139597.

Bounds are passed on as bounds.

For this assay, the target named is GFP11(×7)-actin (actin fused to a seven-copy array of GFP11). As to the kind of experiment: split reporter.

Substance “FluoSTEP-AKAR (R-G1–10–FluoSTEP-AKAR; mRuby2-FHA1-PKAsub-GFP1–10)” registered a fold brightness of the GFP channel versus GFP11(×1)-actin greater than 5 fold.

The substance “FluoSTEP-ICUE (mRuby2-Epac1(149 to 881)-GFP1–10)” had a fold brightness of the GFP channel versus GFP11(×1)-actin of 3.6 fold.
